{"source": "patent US20100130721A1", "target": "human polyclonal IgG (human)", "experiment": "SPR (Biacore), His-tagged fusion protein captured on Ni-NTA chip, human IgG injected", "data": [{"binder": "fusion protein PG2 (designed binder) AYRLILNGRTLRGETTTEAVDAATAERVFRQYANDNGVDGEWTYDDATRTFTVTERPEVIDASELTPAVTPGAYRLILNGRTLRGETTTEAVDAATAERVFRQYANDNGVDGEWTYDDATRTFTVTERPEVIDASELTPAVTGGGGCADDDDDDHHHHHH", "values": [{"measurement": "Kd", "value": 115, "unit": "pM"}, {"measurement": "koff", "value": 0.0001, "unit": "s⁻¹"}, {"measurement": "kon", "value": 864000, "unit": "M⁻¹ s⁻¹"}]}, {"binder": "fusion protein PL3 (designed binder) ATIRANLIYADGRTQTAEFRGTFEEATAEAYRYADLLPRENGRYTVDVADRGYTLNIRFAPGATIRANLIYADGRTQTAEFRGTFEEATAEAYRYADLLPRENGRYTVDVADRGYTLNIRFAPGATIRANLIYADGRTQTAEFRGTFEEATAEAYRYADLLPRENGRYTVDVADRGYTLNIRFAGGGGGCADDDDDDHHHHHH", "values": [{"measurement": "Kd", "value": 788, "unit": "pM"}, {"measurement": "koff", "value": 0.000237, "unit": "s⁻¹"}, {"measurement": "kon", "value": 301000, "unit": "M⁻¹ s⁻¹"}]}, {"binder": "fusion protein PL2 (designed binder) ATIRANLIYADGRTQTAEFRGTFEEATAEAYRYADLLPRENGRYTVDVADRGYTLNIRFAPGATIRANLIYADGRTQTAEFRGTFEEATAEAYRYADLLPRENGRYTVDVADRGYTLNIRFAGGGGGCADDDDDDHHHHHH", "values": [{"measurement": "Kd", "value": 1340, "unit": "pM"}, {"measurement": "koff", "value": 0.000264, "unit": "s⁻¹"}, {"measurement": "kon", "value": 246000, "unit": "M⁻¹ s⁻¹"}]}, {"binder": "fusion protein PG1 (designed binder) AYRLILNGRTLRGETTTEAVDAATAERVFRQYANDNGVDGEWTYDDATRTFTVTERPEVIDASELTPAVTGGGGCADDDDDDHHHHHH", "values": [{"measurement": "Kd", "value": 384, "unit": "pM"}, {"measurement": "koff", "value": 0.000154, "unit": "s⁻¹"}, {"measurement": "kon", "value": 401000, "unit": "M⁻¹ s⁻¹"}]}, {"binder": "fusion protein PG3 (designed binder) AYRLILNGRTLRGETTTEAVDAATAERVFRQYANDNGVDGEWTYDDATRTFTVTERPEVIDASELTPAVTPGAYRLILNGRTLRGETTTEAVDAATAERVFRQYANDNGVDGEWTYDDATRTFTVTERPEVIDASELTPAVTPGAYRLILNGRTLRGETTTEAVDAATAERVFRQYANDNGVDGEWTYDDATRTFTVTERPEVIDASELTPAVTGGGGCADDDDDDHHHHHH", "values": [{"measurement": "Kd", "value": 68, "unit": "pM"}, {"measurement": "koff", "value": "7.63e-05", "unit": "s⁻¹"}, {"measurement": "kon", "value": "1.12e+06", "unit": "M⁻¹ s⁻¹"}]}, {"binder": "fusion protein PL1 (designed binder) ATIRANLIYADGRTQTAEFRGTFEEATAEAYRYADLLARENGRYTVDVADRGYTLNIRFAGGGGGCADDDDDDHHHHHH", "values": [{"measurement": "Kd", "value": 2060, "unit": "pM"}, {"measurement": "koff", "value": 0.000312, "unit": "s⁻¹"}, {"measurement": "kon", "value": 151000, "unit": "M⁻¹ s⁻¹"}]}]}
